From US20160215055A1 (PROMIS NEUROSCIENCES, published 2016) come the findings set out here.

Ends that are not written are not given here.

The assay deals with T1, FasR epitope peptide LHHDGQFCH (human FasR residues 52-60) (human, also: coupled to BSA, linkage not given here).
T1 construct: Coated as BSA-peptide at 100 ng/well; The immunogens were KLH-Cys-X and OVA-Cys-X; also called BSA-specific peptide
T1 peptide: LHHDGQFCH
In words: ELISA, BSA-peptide coated on plates.

B1: AMF-3a-118 (antibody, V domains shown)
VH: QSVEESGGRLVTPGTPLTLTCKASGFSLSDSRVSWVRQAPGKGLEWIGIVGIGWNIYHANWAKGRFTISKTSSTTVDLKITSPTVEDTATYFCARGLGGGTVIWGPGTLVTVSL
VL: AQVLTQTPASVSAAVGGTVTISCQSSESVYKNNYLSWFQQKPGQPPKLLIYEASKLASGVSTRFKGSGSGTQFTLTISGVQCDDAATYYCLGEFSCYSGDCGTFGGGTAVVVKG
notes: Recombinant rabbit monoclonal IgG (RabMAb) expressed in HEK-293-6E cells
Regarding B1, the binding result is “binds”.
